B1: scFv; the commonest letter at each place (parent)
chain 1: EVKLDETGGGLVQPGRPMKLSCVASGFTFSDYWMNWVRQSPEKGLEWVAQIRNKPYNYETYYSDSVKGRFTISRDDSKSSVYLQMNNLRVEDMGIYYCTGSYYGMDYWGQGTSVTVS
chain 2: DVVMTQTPLSLPVSLGDQASISCRSSQSLVHSNGNTYLRWYLQKPGQSPKVLIYKVSNRFSGVPDRFSGSGSGTDFTLKISRVEAEDLGVYFCSQSTHVPWTFGGGTKLEIK

Columns and labels:
[1] = variants of: B1; assay: Kd (Tite-Seq); details: with fluorescein; format: scFv 4-4-20, heavy + light
[2] = variants of: B1; assay: yeast surface expression (ratio to wild type); higher = more expressed; details: format: scFv 4-4-20, heavy + light

Variant | Kd [1] [nM] | yeast surface expression [2]
chain 1 S30I | 2.15 | 0.787
chain 1 S30I D31H W33C | ≥ 10000 | 0.449
chain 1 S30I D31T W36P | ≥ 10000 | 0.928
chain 1 S30I M34N | ≥ 10000 | 0.512
chain 1 S30I M34P | ≥ 10000 | 0.36
chain 1 S30I M34V | 11.3 | 0.753
chain 1 S30I N35P | ≥ 10000 | 0.35
chain 1 S30I V37C | 1.35 | 0.464
chain 1 S30I W33Y V37P | 7330 | 0.0571
chain 1 S30I W36P V37E | ≥ 10000 | 0.93
chain 1 S30I W36V V37Q | ≥ 10000 | 0.525
chain 1 S30I Y32T | ≥ 10000 | 0.909
chain 1 S30K | 1.22 | 1.12
chain 1 S30K N35G | 16.2 | 1.03
chain 1 S30K N35I | ≥ 10000 | 0.879
chain 1 S30K V37A | 27.2 | 0.745
chain 1 S30K W33L | ≥ 10000 | 0.749
chain 1 S30K W36E | ≥ 10000 | 1.31
chain 1 S30K Y32E | ≥ 10000 | 0.857
chain 1 S30K Y32S M34V | ≥ 10000 | 0.837
chain 1 S30L | 6.38 | 0.801
chain 1 S30L D31L | ≥ 10000 | 0.0981
chain 1 S30L N35T | ≥ 10000 | 0.699
chain 1 S30L W33D | ≥ 10000 | 0.844

Variant | Kd [1] [nM] | yeast surface expression [2]
chain 1 S30L W33E | ≥ 10000 | 0.645
chain 1 S30L W33I | ≥ 10000 | 0.639
chain 1 S30L Y32H | 2230 | 0.8
chain 1 S30M | 1.75 | 0.855
chain 1 S30M D31F | 5660 | 0.611
chain 1 S30M D31S | 2.65 | 0.671
chain 1 S30M M34L | 2.99 | 0.94
chain 1 S30M M34P | ≥ 10000 | 2.67
chain 1 S30M N35M | ≥ 10000 | 0.654
chain 1 S30M N35V V37A | ≥ 10000 | 0.167
chain 1 S30M V37E | 10.7 | 0.721
chain 1 S30M V37M | 0.504 | 0.887
chain 1 S30M Y32H | 72.9 | 0.872
chain 1 S30M Y32R | 4840 | 0.465
chain 1 S30N | 1.22 | 0.889
chain 1 S30N M34I | 2.93 | 0.954
chain 1 S30N N35E | ≥ 10000 | 0.697
chain 1 S30N N35T | ≥ 10000 | 0.803
chain 1 S30N N35W | ≥ 10000 | 0.529
chain 1 S30N V37W | ≥ 10000 | 0.654
chain 1 S30N W33D | ≥ 10000 | 1.05
chain 1 S30N W33M | ≥ 10000 | 0.879
chain 1 S30N W36C | ≥ 10000 | 0.445
chain 1 S30N W36D | ≥ 10000 | 0.393

Variant | Kd [1] [nM] | yeast surface expression [2]
chain 1 S30N W36N | ≥ 10000 | 0.265
chain 1 S30N Y32S | 14.6 | 1.14
chain 1 S30P | 1.01 | 1.06
chain 1 S30P D31A Y32H | ≥ 10000 | 0.725
chain 1 S30P D31S N35P | ≥ 10000 | 0.757
chain 1 S30P M34F | 1.84 | 1.2
chain 1 S30P N35G | 4.68 | 1.19
chain 1 S30P N35L | ≥ 10000 | 0.652
chain 1 S30P N35V | ≥ 10000 | 0.636
chain 1 S30P V37S | 0.939 | 0.74
chain 1 S30P V37Y | 72.9 | 1.25
chain 1 S30P W33E | ≥ 10000 | 1.01
chain 1 S30P W33P | ≥ 10000 | 0.628
chain 1 S30P W33Q W36F | ≥ 10000 | 0.838
chain 1 S30Q | 0.938 | 1.12
chain 1 S30Q D31E N35K | ≥ 10000 | 2.59
chain 1 S30Q D31H | 1.58 | 0.881
chain 1 S30Q D31H Y32N | ≥ 10000 | 0.857
chain 1 S30Q N35K | ≥ 10000 | 0.304
chain 1 S30Q V37E | ≥ 10000 | 0.892
chain 1 S30Q W33N | ≥ 10000 | 0.979
chain 1 S30Q W33S | ≥ 10000 | 0.902
chain 1 S30Q Y32V | ≥ 10000 | 0.923
chain 1 S30R | 0.964 | 0.995

Variant | Kd [1] [nM] | yeast surface expression [2]
chain 1 S30R D31N W36A | ≥ 10000 | 0.32
chain 1 S30R D31R | 8.27 | 0.684
chain 1 S30R M34C | 4.44 | 0.668
chain 1 S30R M34D | ≥ 10000 | 0.775
chain 1 S30R M34S | 110 | 0.717
chain 1 S30R N35F | ≥ 10000 | 0.413
chain 1 S30R N35R | ≥ 10000 | 0.535
chain 1 S30R N35V | ≥ 10000 | 0.567
chain 1 S30R V37M | ≤ 0.316 | 1.02
chain 1 S30R W33F M34V | 105 | 0.767
chain 1 S30R W36G | ≥ 10000 | 0.171
chain 1 S30R Y32Q | ≥ 10000 | 1.13
chain 1 S30R Y32W | ≥ 10000 | 0.811
chain 1 S30T | 0.743 | 1.07
chain 1 S30T M34E | 345 | 0.314
chain 1 S30T M34I | 4.93 | 0.678
chain 1 S30T N35Q | ≥ 10000 | 0.831
chain 1 S30T V37C | 0.454 | 0.826
chain 1 S30T V37P | 59.2 | 
chain 1 S30T V37W | ≥ 10000 | 0.671
chain 1 S30T W33F | 53.4 | 0.909
chain 1 S30T W33V | ≥ 10000 | 0.899
chain 1 S30T W36M | 20 | 0.705
chain 1 S30V | 0.743 | 0.901

Variant | Kd [1] [nM] | yeast surface expression [2]
chain 1 S30V D31M | 37.2 | 0.223
chain 1 S30V D31P | ≥ 10000 | 0.754
chain 1 S30V D31V W36E | ≥ 10000 | 1.33
chain 1 S30V M34H | ≥ 10000 | 0.497
chain 1 S30V M34S | ≥ 10000 | 0.569
chain 1 S30V W33A | ≥ 10000 | 0.748
chain 1 S30V Y32D | ≥ 10000 | 0.745
chain 1 S30W | 2.15 | 0.701
chain 1 S30W D31N | ≤ 0.316 | 0.866
chain 1 S30W D31V | ≥ 10000 | 0.463
chain 1 S30W N35I | ≥ 10000 | 0.743
chain 1 S30W N35V | ≥ 10000 | 0.273
chain 1 S30W W36D | ≥ 10000 | 0.104
chain 1 S30W Y32C | 5660 | 0.838
chain 1 S30W Y32G | 1550 | 0.706
chain 1 S30W Y32Q | ≥ 10000 | 0.646
chain 1 S30Y | 1.46 | 0.759
chain 1 S30Y D31A N35A | ≥ 10000 | 0.451
chain 1 S30Y D31T | 2.65 | 0.428
chain 1 S30Y M34A | 53.4 | 0.483
